B1: Gαi3⋅GDP (natural protein)
chain: MGCTLSAEDKAAVERSKMIDRNLREDGEKAAKEVKLLLLGAGESGKSTIVKQMKIIHEDGYSEDECKQYKVVVYSNTIQSIIAIIRAMGRLKIDFGEAARADDARQLFVLAGSAEEGVMTPELAGVIKRLWRDGGVQACFSRSREYQLNDSASYYLNDLDRISQSNYIPTQQDVLRTRVKTTGIVETHFTFKDLYFKMFDVGGQRSERKKWIHCFEGVTAIIFCVALSDYDLVLAEDEEMNRMHESMKLFDSICNNKWFTETSIILFLNKKDLFEEKIKRSPLTICYPEYTGSNTYEEAAAYIQCQFEDLNRRKDTKEIYTHFTCATDTKNVQFVFDAVTDVIIKNNLKECGLY
B2: LGN-TPR (1–409) (domain or fragment)
chain: MREDHSFHVRYRMEASCLELALEGERLCKSGDCRAGVSFFEAAVQVGTEDLKTLSAIYSQLGNAYFYLHDYAKALEYHHHDLTLARTIGDQLGEAKASGNLGNTLKVLGNFDEAIVCCQRHLDISRELNDKVGEARALYNLGNVYHAKGKSFGCPGPQDTGEFPEDVRNALQAAVDLYEENLSLVTALGDRAAQGRAFGNLGNTHYLLGNFRDAVIAHEQRLLIAKEFGDKAAERRAYSNLGNAYIFLGEFETASEYYKKTLLLARQLKDRAVEAQSCYSLGNTYTLLQDYEKAIDYHLKHLAIAQELKDRIGEGRACWSLGNAYTALGNHDQAMHFAEKHLEISREVGDKSGELTARLNLSDLQMVLGLSYSTNNSMMSENIEIDGSLHGAGAKLGRRHSMENLELMK
B3: Insc (18–66) (domain or fragment)
chain: WGLWGAQESRRLCCVGPDRCGQALLQIGINMMALPGGRHLDSVPLQEQR

The target in one test is T1, LGN GL3 motif (mouse).
T1 chain: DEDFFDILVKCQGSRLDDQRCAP
The test can be described thus: ITC. (In ITC the heat of successive injections is recorded.)

Another test addresses T2, AGS3-GL1234 (470–631) (mouse).
T2 chain: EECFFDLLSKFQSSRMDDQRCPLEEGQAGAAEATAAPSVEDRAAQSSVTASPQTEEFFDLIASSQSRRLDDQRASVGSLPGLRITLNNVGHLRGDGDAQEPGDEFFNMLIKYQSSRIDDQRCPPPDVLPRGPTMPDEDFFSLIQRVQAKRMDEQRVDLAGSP
The test can be described thus: ITC.

The target in another test is T3, LGN-GL1234 (483–650) (mouse).
T3 chain: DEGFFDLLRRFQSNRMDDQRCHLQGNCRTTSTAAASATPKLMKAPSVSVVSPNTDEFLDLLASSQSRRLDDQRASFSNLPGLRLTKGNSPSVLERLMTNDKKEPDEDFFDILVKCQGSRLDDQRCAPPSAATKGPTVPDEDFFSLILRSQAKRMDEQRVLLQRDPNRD
Put plainly: ITC.

Another test has as its target T4, LGN GL4 motif (mouse).
T4 chain: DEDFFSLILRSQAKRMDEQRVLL
The test can be described thus: ITC.

For the next test, the target named is T5, NuMA (1886–1912) (human, UniProt Q14980-2 1886-1912).
T5 chain: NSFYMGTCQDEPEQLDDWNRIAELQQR
Put plainly: ITC.

The test “Insc (18–66)” addresses B3. Put plainly: ITC.
Another test concerns the target T6, FL-AGS3-4E (mouse, UniProt Q6IR34).
T6 sequence (Q6IR34 whole entry, looked up): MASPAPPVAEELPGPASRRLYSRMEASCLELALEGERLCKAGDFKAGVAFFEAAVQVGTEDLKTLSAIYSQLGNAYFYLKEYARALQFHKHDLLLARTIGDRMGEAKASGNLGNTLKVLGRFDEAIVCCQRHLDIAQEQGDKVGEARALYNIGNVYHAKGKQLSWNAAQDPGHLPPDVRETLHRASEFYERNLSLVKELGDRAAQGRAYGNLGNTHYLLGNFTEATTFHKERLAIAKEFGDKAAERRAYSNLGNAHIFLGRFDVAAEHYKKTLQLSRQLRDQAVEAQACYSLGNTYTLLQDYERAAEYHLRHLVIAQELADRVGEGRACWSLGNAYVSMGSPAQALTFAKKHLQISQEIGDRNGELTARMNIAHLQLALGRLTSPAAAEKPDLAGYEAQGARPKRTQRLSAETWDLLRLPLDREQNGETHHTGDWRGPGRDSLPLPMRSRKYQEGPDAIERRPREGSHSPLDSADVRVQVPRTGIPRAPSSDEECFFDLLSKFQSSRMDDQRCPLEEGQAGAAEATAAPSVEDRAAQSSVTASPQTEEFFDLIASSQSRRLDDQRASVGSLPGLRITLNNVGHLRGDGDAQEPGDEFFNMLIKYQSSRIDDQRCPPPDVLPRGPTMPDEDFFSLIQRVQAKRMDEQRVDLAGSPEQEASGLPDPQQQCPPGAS
Put plainly: ITC.

For the test “LGN-TPR (1–409)”, the target named is B2. The test can be described thus: ITC.
For a further test, the target named is T7, AGS3-TPR (1–405) (mouse).
T7 chain: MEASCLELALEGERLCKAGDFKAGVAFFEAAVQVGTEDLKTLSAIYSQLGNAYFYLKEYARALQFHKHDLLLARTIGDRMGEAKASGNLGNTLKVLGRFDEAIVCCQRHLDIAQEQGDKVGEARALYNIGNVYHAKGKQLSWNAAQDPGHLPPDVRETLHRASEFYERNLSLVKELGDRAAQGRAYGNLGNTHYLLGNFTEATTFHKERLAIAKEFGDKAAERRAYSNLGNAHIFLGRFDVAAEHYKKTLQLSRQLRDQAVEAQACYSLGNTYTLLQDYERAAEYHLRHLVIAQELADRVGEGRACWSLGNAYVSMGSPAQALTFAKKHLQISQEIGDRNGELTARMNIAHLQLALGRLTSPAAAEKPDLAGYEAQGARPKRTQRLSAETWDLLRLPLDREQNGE
Put plainly: ITC; AGS3-TPR premixed with NuMA (1886–1912).

The target in the next test is T8, AGS3-L (−23–405) (mouse).
T8 chain: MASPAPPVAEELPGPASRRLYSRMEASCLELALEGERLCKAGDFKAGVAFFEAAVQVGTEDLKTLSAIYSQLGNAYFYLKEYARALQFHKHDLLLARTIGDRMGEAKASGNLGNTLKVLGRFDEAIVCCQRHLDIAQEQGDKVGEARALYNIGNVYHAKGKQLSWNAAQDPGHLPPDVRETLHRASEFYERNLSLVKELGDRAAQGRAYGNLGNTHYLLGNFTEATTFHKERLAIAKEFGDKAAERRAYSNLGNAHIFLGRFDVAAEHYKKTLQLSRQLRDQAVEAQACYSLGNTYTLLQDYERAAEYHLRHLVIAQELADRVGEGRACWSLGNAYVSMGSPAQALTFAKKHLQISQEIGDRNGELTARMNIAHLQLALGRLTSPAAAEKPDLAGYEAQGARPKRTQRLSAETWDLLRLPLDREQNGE
Put plainly: ITC.

In the next test the target is T9, FL-LGN-4E (mouse, UniProt Q8VDU0).
T9 sequence (Q8VDU0 whole entry, looked up): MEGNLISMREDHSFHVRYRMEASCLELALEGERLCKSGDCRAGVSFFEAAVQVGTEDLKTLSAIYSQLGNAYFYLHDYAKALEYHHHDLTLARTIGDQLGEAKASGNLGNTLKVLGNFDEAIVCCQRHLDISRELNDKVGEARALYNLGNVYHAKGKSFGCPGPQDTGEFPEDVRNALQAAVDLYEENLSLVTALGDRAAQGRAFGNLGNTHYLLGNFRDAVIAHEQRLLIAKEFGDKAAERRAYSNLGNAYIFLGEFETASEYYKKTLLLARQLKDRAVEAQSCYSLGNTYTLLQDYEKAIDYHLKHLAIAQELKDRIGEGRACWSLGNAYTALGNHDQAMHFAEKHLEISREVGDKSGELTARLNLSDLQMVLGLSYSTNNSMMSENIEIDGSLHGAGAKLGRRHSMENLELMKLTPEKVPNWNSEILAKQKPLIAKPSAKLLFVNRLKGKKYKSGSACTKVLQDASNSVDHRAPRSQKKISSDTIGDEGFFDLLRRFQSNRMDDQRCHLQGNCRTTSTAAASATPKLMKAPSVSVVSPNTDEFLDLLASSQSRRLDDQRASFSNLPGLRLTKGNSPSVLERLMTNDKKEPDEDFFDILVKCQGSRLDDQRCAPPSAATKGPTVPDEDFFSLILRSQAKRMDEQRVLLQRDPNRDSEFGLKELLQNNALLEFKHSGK
Put plainly: ITC.

As to B1, the Kd in the test with LGN GL3 motif was 42 nM; in the test with AGS3-GL1234 (470–631), 280 nM; with LGN-GL1234 (483–650) it was 260 nM; with LGN GL4 motif, 190 nM.

B2: the Kd with NuMA (1886–1912) worked out at 630 nM; with Insc (18–66), 980 nM.

With B3, the Kd turned out to be 290 nM in the test with FL-AGS3-4E; 980 nM in the test with LGN-TPR (1–409); 12700 nM with AGS3-TPR (1–405); 870 nM with AGS3-L (−23–405); 580 nM in the test with FL-LGN-4E.

In general, Kd refers to the equilibrium constant for the complex coming apart.

(Values after PMC12151148 (2024).)
